{"source": "patent US20040253306A1", "about": "“Sustained release formulations for nifedipine dextromethorphan, and danazol” (priority 2001, published 2004)", "origin": "cited, not measured here", "conditions": "oral; free vs liposomes having ceramides", "data": [{"substance": "superoxide dismutase", "values": [{"measurement": "bioavailability", "result": 14, "unit": "%"}]}]}
